This note sets out measurements from the nanobody polyreactivity screen of Harvey et al. (2022).

This data set in a line: yeast display, Sf9 membrane polyspecificity reagent, FACS + sequencing; frameworks hold sequencing errors. A digest of the protocol:
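In a synthetic yeast display library (Saccharomyces cerevisiae BJ5465), nanobody expression was induced with galactose for 36–48 hours. FACS gates were set low and high (top ~1%) using anti-HA fluorescence for expression and streptavidin fluorescence for binding of the Sf9 membrane reagent. Each polyreactivity label is drawn from the gate of origin.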
Turning to “QVQLVESGGGLVQARGSLRLSCAASGSTFSYYTMGWYREAPGKERELVAAITRRGDSTYADSVKGRFTISRDNAMNTVYLQLNSLKPEDTAVYYFAADDYVGVSGMDYWGQGTQVTVSS”, the “polyreactivity (PSR sort gate)” value is given as “low polyreactivity”.
Then “QVQLVESGGGLVQARGSLRLSCAASGSTLSPYVMGWYRQAPGKERELVATISRSGGRTYYADSVKGRFTISRDNAKNTVYLQMNSLKPEDTAVYYCAARTYYWGALIVSYDYWGQGTQGTVSS”, with “low polyreactivity”.
Take “QVQLVESGGGLVQARGSLRLSCAATGFTIWQNAMGWYRQPQGKERELVAGIRLSGGSTYADSVKGRFTIARDNAKNTVYLQMNSLKPEDTAVYYCAARIAGNYRYRSLRYDYWGQGTQVTVSS”: the “polyreactivity (PSR sort gate)” value was “high polyreactivity”.
As to “QVQLVESGGGLVQARGSLRLSCAPSGFTFEAYAMGWYRQAPGKERELVAAISSSDTTSYADSVKGRFTISRDNAKNTVYLQMNSLKREDTAVYYCAADDWYTGYDYWGQGTQVTVSS”, the “polyreactivity (PSR sort gate)” value is on record as “high polyreactivity”.
To “QVQLVESGGGLVQARGSLRLSCAPSGSIFDHNAMGWYRQAPGKESEFVAAISSSGGSTNYADSVKGRFTISRDIAKNTVYLQMNSLKPEDTAVYYCAAYPDRYVELGYWGQGTQVTVSS” belongs “low polyreactivity”; to “QVQLVESGGGLVQARGSLRLSCASSGSTFSRYAMGWYRQAPGKERELVAGISWSGGNTYYADSVKGRFTISRDNAKNTVYLQMNSLKPEDTAVYYCAADFLDYWGVYGWAEYEYWGQGTQVTVSS”, “low polyreactivity”; to “QVQLVESGGGLVQARGSLRLSCSASGSIIDIYAMGWYRQAPGKERELVAAITGGGSTNYADSVKGRFTISRDNAKNTVYLQMNILKPEDTAVYYCAAGTYLNGGGEYWGQGTQVTVSS”, “low polyreactivity”.
Turning to “QVQLVESGGGLVQARGSLRLSSAASGIIFCHYVMGWYRQAPGKERELVAAISSRGGNTYYADSVKWRFTISRDNAKNTVYFQMNSLKPEDTAVYYCNARGGARAWYFAYNYWGHGTQVTVSS”, the “polyreactivity (PSR sort gate)” value was “high polyreactivity”.
In the case of “QVQLVESGGGLVQARGSLRLSSAASGRTFHYNAMGWYRQAPGKERELVAAISFNGGGTYYADSVKGRFTISRDNAKNTVYLQMNCLKTEDTAVYYCATDVPSRYDYWGQGTQVTVSS”, the “polyreactivity (PSR sort gate)” value is recorded as “low polyreactivity”.
For the sequence “QVQLVESGGGLVQARGSLRLSSAASGSTFYDYAMGWYRHAPGKERELVAAISGNGDSTYYADSVKGRFTISRDNAKNTVYLQMNSLNPEDTAVYYCAAYLGWGYDYWGQGTQVTVSS”, the “polyreactivity (PSR sort gate)” value is reported as “low polyreactivity”.
To “QVQLVESGGGLVQARGSLRLSSAASRSTFNVYAMGWYRQAPGKERELVAGIRDSDGSTNYADSVKGRFTISRDNAKNTVYLQMNSLKPEDTAVYYCAADLYDINWSVWLDYWGQGTQVTVSS” belongs “low polyreactivity”; to “QVQLVESGGGLVQAVCSLRLICAASGLTFGGYSMGWYRQAPAKERELVAAISRSCGSTYYADSVKGRFTISRDNAKNTVFLQMNSLKPEDTAVYYCNAGRDTKYDYWGQGTQVTVSS”, “low polyreactivity”; to “QVQLVESGGGLVQAVGSLLLSCAASGITFRYYAMGWYRQAPGKERELVARITTDGSTHYADSVMGRFTISRDNAKNTVYLQMNSLKPEDTAVYYCNVDGYYLFVRGYEYWGLGTQVTVSS”, “low polyreactivity”.
To “QVQLVESGGGLVQAVGSLRLSCAASGFIFAQNARGGSRPAPGKERELVAAIYGSGVRTYYADSVKGRFTISRDNAKNTVYLQMNSLKPEDTAVYYCAKDTYLQIYQYGYWGQGTQVTVSS” belongs “high polyreactivity”; to “QVQLVESGGGLVQAVGSLRLSCAASGFIFGTYAMGWYRQAPGKERELVAVITRGGTTYYADSVKGRFTISRDNAKNTVYLQMNSLKPEDTAVYYCAADPWALFVGDEYYYWGQGTQVTVSS”, “low polyreactivity”; to “QVQLVESGGGLVQAVGSLRLSCAASGFTFSVNAMGWYRQAPGKERELVAAITRSGGRTYYADSVKGRFTISRDNAQNTVYLQMNSLKPEDTAVYYCATPRSRTDGYDYWGQGTQVTVSS”, “high polyreactivity”.
Then “QVQLVESGGGLVQAVGSLRLSCAASGFTYSPNAMGWYRQAPGKERELVATISWNGGRTHYADSVKGRFTISRDNAKNTVYLQMNSLKPEDTAVYDCNVVRATGRYYYWGQGTQVTVSS”, with “high polyreactivity”.
As to “QVQLVESGGGLVQAVGSLRLSCAASGLIFKKYAMGWYRQAPGKERELVATITSRGGSTYYADSVKGRFTISRDNAKNTVYLQMNSLKPEDTAVYYCAARFGFYTAYTYNYWGQGTQVTVSS”, the “polyreactivity (PSR sort gate)” value was “high polyreactivity”.
To “QVQLVESGGGLVQAVGSLRLSCAASGRIFRYYAMGWYRQATGKESELVAAISDSSGYTYYADSVKGRFTISRDNAKNTVYLQMISLKPEDTAVYYCRDYLGSGYYYWGQGTQVTVSS” belongs “high polyreactivity”; to “QVQLVESGGGLVQAVGSLRLSCAASGRIFYPYAMGWYRQAPGKERELVAVITSGTGTYYADSVKGRFTISRDNAKNTVYLQMNSLKQEDTAVYYCAADRWYYRHRSSSYGYDYWGQGTQVTVSS”, “high polyreactivity”; to “QVQLVESGGGLVQAVGSLRLSCAASGRIIVRNAMGWYRQAPGKERELVAAISRSGGSTYYADSVKGRFTLSRDNAKNTVYLQMNSLIPEYTAVYYCAADYPITYTSKFNYWGHGTQVTVSS”, “high polyreactivity”.
As to “QVQLVESGGGLVQAVGSLRLSCAASGRTFRTYTMGWYRQAPGKERELVAAISRGGSTNYADSLKGRFTISRDNAKNTVYLQMNSLKPEDTAVYYCNAKASFWSPYDYWGQGTQVTVSS”, the “polyreactivity (PSR sort gate)” value is “high polyreactivity”.
On to “QVQLVESGGGLVQAVGSLRLSCAASGRTFYSYAMGWYRQAPGKERELVAAISRTGGSTYYADSVKGRFTISLDNAKNTVYLQMNSLKPEDTAVYYCAAVYRRNEFGYWGQGTQVTVSS”, for which the “polyreactivity (PSR sort gate)” value is given as “high polyreactivity”.
To “QVQLVESGGGLVQAVGSLRLSCAASGYTFVIYAMGWYRQAPGKERELVAAITTIGGRTYYADSVKGRFTISRDNAKNTVYLQMISLKPEDTAVYYCAADIRSNRLYDGGYWGLGTQVTVSS” belongs “low polyreactivity”; to “QVQLVESGGGLVQAVGSLRLSCADSGRIFYGYDMGWYRQAPGKERELVAAITWRGGTFYADSVKGRFTISRDNEKKTVYLQMNSLKPEDTAVYYCSARVSSYGRYDYWGQGTQVTVSS”, “high polyreactivity”.
For “QVQLVESGGGLVQAVGSLRLSCDASGLTFNSNAMGWYIQAHGKDRELVATISRGGTTNYADSVKGRFTISRDNAKNTVYLQMNSLKPEDTAVYYCNALRGSRYDYWGQGTQVTVSS”, the “polyreactivity (PSR sort gate)” value is listed as “high polyreactivity”.
As for “QVQLVESGGGLVQAVGSLRLSGAASGSIFQYTAMGRYRQAPGKERELVAAISSRGGIRYYADSVKGRFTISRDNAKYTVFLQMNSLKPEDTAVYYCAAEAYYSDVRWSEYWGQGTQVTVSS”, the “polyreactivity (PSR sort gate)” value is “high polyreactivity”.
To “QVQLVESGGGLVQAVGSLRLSSAASGFIFWYYAMGWYRQAPGKERELVAAISSGGGTNYADSVKGRFTISRDNAKNTVYLQMNSLKPEDYAVYYCAAYGPLTGYDYWGQGTQVTVSS” belongs “low polyreactivity”.
To “QVQLVESGGGLVQAVGSLSLICAASGSTFLKYTMGWYRQAPWKERELVAAISKSGGSTYYADSVKGRFTISRDNAKNTVYLQMNSLKPEDTAVYYCAKGRYWVSSYGYGYWVQGTQVTVSS” belongs “high polyreactivity”; to “QVQLVESGGGLVQEGCSLRLTCAASGSIFYYYAMGWYRQAPRKERELVATITWNGAGTFYADSVKGRFTISRDNAKNTVYLQMNSLKPEDTAVYYCAASWYGESGYDYWGQGTQVTVSS”, “low polyreactivity”.
As for “QVQLVESGGGLVQEGGILPLSCAASGRIFGTYAMGWYRQAPGKERELVAAISSSGTSTYYADSVKGRFTISRDNAKNTVYLPMNSLKPEDTAVYYCAARYPRTAYDYWGQCTQVTVSS”, the “polyreactivity (PSR sort gate)” value is given as “low polyreactivity”.
Then “QVQLVESGGGLVQEGGILRLSCAASGLTFYGYAMGWYRQAPGKERELVAAITSGDSTYYADSVKGRFTISRDNAKNTVYLQMNSLKPEDTAVYYCAAVGGYPRYGYWGQGTQVTVSS”, with “high polyreactivity”; and “QVQLVESGGGLVQEGGSLCLSCAASGIFVYNAMGWYRQAPGKEREFVAAINKSGASTFYADSVKGRFTISRDNAKNTVYLQMNSLKPEDTAVYYCNAGTLYYRYRWGHYYDSWGQGTQVTVSS”, with “low polyreactivity”; and “QVQLVESGGGLVQEGGSLGLSCAASGFIFVRYAMGWYRQAPGKERELVATITRGGGTYYADSVKARFTISRDNAKNTVYLQMKRLKPVDTAVYYCNKRGYSRYTGFGLDSWGQGTQVTVSS”, with “high polyreactivity”.
Then “QVQLVESGGGLVQEGGSLLISCAASGSIVESYAMGWYRQAPGKEREWVAAITIRGASPYYADSVKGRFTISRDNAKNTVYLQMNSLKPEDTAVYYCNARWPGIGPIYDYWGQGTQVTVSS”, with “low polyreactivity”.
Then “QVQLVESGGGLVQEGGSLRIICAASGFTFYRYARGWYRQEPGKERELVAAISSHGDRTYYSDSVKGRFTISRDNAKNTVYLQMNSLKPEDTAVYFCNVETLYGYFLHFYLRYYHWGQGTQVTVSS”, with “high polyreactivity”; and “QVQLVESGGGLVQEGGSLRLICAASGIIFYFYAMGWYRQAPGKERELVAAISSGGGSTYYADSVKGRFTISRDNAKNTVYLQMNSLKPEDTAVYYCAAKIGRNFDWGQGTQVTVSS”, with “high polyreactivity”.
For “QVQLVESGGGLVQEGGSLRLICAASGRTFVYNTMGWYRQAPGKERELVAAITRSGDSTYDADSVKGRFTISRDTAKITVYIHMKSLKPDDTGVYYCNAVSNRYWLKDYWGQGTQVTVSS”, the “polyreactivity (PSR sort gate)” value was “high polyreactivity”.
Then “QVQLVESGGGLVQEGGSLRLICAASGRTFYKNAMGWYRPAPAKERELVAAISSRGGRTTYADSLKGRYTISRDNAKNTVYLQMNSLKTEDTAVYYCAADWEYDYWGQGTHVTVSS”, with “high polyreactivity”.
In the case of “QVQLVESGGGLVQEGGSLRLICAASGSTFAANTMGWYRQEPGKERELVAAITDRGGSTYYADSVKGRFTISRDNAKNTVYLQMITLKPEDTAVYYSAAERPPYGYLVVGYVSTQYYYWGQGTQVTVSS”, the “polyreactivity (PSR sort gate)” value is given as “low polyreactivity”.
Then “QVQLVESGGGLVQEGGSLRLICSASGIILGPYAMGWYRQAPGKESELVSAISWRGGSTYYADSVKGRFTISRDNAKNTVYLQMNSLKPEDTAVYYCATASRTSRTGWAVYYWGQGTQVTVSS”, with “high polyreactivity”.
